Experimental data reported in US20210063414A1, “METHODS FOR PREVENTING AND/OR TREATING BONE LOSS CONDITIONS BY MODULATING IRISIN” (Dana-Farber Cancer Institute, Inc., priority 2018, published 2021).

Target: T1, MLO-Y4 cell surface proteins (Mus musculus, UniProt P55292)
T1 construct: endogenous in cells; host or cells: MLO-Y4
T1 sequence (P55292 136-902): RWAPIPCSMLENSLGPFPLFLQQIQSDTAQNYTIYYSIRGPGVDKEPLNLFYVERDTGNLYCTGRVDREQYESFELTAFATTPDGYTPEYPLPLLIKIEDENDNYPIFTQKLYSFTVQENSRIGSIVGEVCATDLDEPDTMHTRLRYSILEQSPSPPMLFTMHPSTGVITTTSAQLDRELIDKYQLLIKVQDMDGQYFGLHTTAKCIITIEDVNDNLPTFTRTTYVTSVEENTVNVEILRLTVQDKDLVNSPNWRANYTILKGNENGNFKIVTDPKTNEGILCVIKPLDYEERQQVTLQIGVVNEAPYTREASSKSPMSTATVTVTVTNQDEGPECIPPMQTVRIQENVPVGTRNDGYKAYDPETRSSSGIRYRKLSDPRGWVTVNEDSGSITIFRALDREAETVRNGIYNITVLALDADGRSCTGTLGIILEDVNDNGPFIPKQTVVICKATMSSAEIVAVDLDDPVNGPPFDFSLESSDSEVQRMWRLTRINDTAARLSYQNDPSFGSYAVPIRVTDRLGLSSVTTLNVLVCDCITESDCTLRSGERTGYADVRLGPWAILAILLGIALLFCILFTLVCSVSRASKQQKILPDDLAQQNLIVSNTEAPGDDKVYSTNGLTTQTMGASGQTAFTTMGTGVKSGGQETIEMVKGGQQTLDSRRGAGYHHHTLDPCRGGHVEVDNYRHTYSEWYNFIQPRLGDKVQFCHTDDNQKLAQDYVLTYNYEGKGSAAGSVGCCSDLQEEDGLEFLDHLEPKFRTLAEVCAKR
Test: Crosslinking/co-immunoprecipitation/mass spectrometry (TMT quantitative proteomics) to identify irisin receptors
Type: binding
Settings: co-precipitated protein Dsc2 (DSC2_MOUSE)
Summary of the method: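 Relative protein abundance came from 6-plex TMT MS3 quantitation on an Orbitrap Fusion Lumos, after in-gel trypsin digestion of Coomassie-stained SDS-PAGE lanes. Input was a Ni-NTA pulldown (250 mM imidazole elution) of lysates from murine MLO-Y4 cells. These cells were treated on ice with His-tagged irisin or adipsin (10 nM, 20 min) in serum-free medium, then crosslinked with 1.5 mM DTSSP for 30 min.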

- TMT signal-to-noise ratio: 93.7977
Substance: adipsin
